The values that follow come from PMC10333598.

One test addresses Bcl-xL (Homo sapiens) (UniProt Q07817). Briefly: ITC. Conditions: cited from earlier work.
The target of the next test is Mcl-1 (Homo sapiens) (UniProt Q07820). Conditions: cited from earlier work.
The target of test [1] is human Mcl-1 ΔPESTΔTM (human). Briefly: NMR competition (15N SOFAST-HMQC); 15N-Mcl-1 with an excess (5 eq. total) of an equimolar mix of TCTPBH3, TCTPBH3D16I and MuleBH3, 2 h at room temperature; populations from intensities of seven reporter residues; 950 MHz, 298 K, 50 mM MES pH 6.5, 50 mM EPPS, 50 mM NaCl, 2 mM TCEP.
In test [2] the target is human Mcl-1 ΔPESTΔTM (human). As to the kind of experiment: NMR titration; 15N SOFAST-HMQC of 15N-Mcl-1 (100 μM) with unlabeled BH3 peptide added (TCTPBH3 0-500 μM, up to 5 eq.; TCTPBH3D16I and MuleBH3 up to 3 eq.); 950 MHz, 308 K, 50 mM MES pH 6.5, 50 mM EPPS, 50 mM NaCl, 2 mM TCEP; KD and koff from TITAN 2D line shape analysis, two-state model.
The target in test [3] is human Mcl-1 ΔPESTΔTM (human). As to the kind of experiment: SEC + other: SAXS; equimolar mix of TCTP and Mcl-1 (500 μM each), 2 h incubation, Superdex 200 10/300 in line with SAXS; 50 mM CHES pH 9, 50 mM NaCl, 2 mM TCEP; 37 °C (308 K in the legend).

UniProt Q07820, sequence (Q07820 whole entry): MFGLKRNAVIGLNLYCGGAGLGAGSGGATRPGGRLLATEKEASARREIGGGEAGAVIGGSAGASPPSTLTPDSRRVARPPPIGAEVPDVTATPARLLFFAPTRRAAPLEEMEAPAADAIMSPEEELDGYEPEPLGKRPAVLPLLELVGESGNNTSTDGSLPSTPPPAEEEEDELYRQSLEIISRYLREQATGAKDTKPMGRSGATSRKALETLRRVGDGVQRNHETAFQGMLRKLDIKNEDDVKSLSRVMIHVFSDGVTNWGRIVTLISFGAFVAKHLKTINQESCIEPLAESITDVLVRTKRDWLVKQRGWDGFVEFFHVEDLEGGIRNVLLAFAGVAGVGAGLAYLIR
UniProt Q07817, sequence (Q07817 whole entry): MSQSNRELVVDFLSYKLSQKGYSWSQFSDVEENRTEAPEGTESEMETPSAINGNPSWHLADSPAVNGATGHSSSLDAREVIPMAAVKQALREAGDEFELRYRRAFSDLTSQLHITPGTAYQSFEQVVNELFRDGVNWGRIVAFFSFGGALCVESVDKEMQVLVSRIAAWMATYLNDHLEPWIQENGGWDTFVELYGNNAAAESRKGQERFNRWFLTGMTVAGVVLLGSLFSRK

For the molecule TCTP BH3 (from UniProt P13693), the dissociation constant (Kd) in the test with Bcl-xL (Homo sapiens) is 12 µM.
For Mule BH3 (from UniProt Q7Z6Z7), the Kd with Mcl-1 (Homo sapiens) was 0.029 µM.

B1: TCTP BH3-like peptide (TCTPBH3) (peptide)
peptide: DEMFSDIYKIREIADGLCLEVE
In test [1], B1 yielded a fold weaker affinity than TCTPBH3D16I and MuleBH3 of 10 fold. In test [2], this molecule returned a Kd of 7.9 µM and a koff of 56 s⁻¹.

B2: TCTP BH3-like peptide D16I mutant (TCTPBH3D16I) (peptide)
peptide: DEMFSIIYKIREIADGLCLEVE
B2: in test [1], the relative population of Mcl-1 bound (in the mix of three peptides) came to 45%.

B3: full-length human TCTP (FL-TCTP) (natural protein)
chain: MIIYRDLISHDEMFSDIYKIREIADGLCLEVEGKMVSRTEGNIDDSLIGGNASAEGPEGEGTESTVITGVDIVMNHHLQETSFTKEAYKKYIKDYMKSIKGKLEEQRPERVKPFMTGAAEQIKHILANFKNYQFFIGENMNPDGMVALLDYREDGVTPYMIFFKDGLEMEKC
For B3, the stoichiometry N in test [3] was determined as 1.

In general, Kd refers to the free concentration of one partner at which half of the binding sites on the other are occupied at equilibrium, for simple one-to-one binding. Usually koff stands for the first-order rate constant of dissociation. Broadly, the stoichiometry N is a count of units in the complex or per binding partner.
